Measured values taken from patent US20070167369A1, “Novel use of isolated polypeptide comprising four FAS-1 domains, EM1 domain and RGD motif” (KYUNGPOOK NATIONAL UNIVERSITY INDUSTRY-ACADEMIC COOPERATION …, priority 2004, published 2007).

What was measured:
HUVECs [1] = test: Binding of biotin-βig-h3 to HUVECs, Western immuno-blotting (Example 3-4); parameters: species or system human; conditions: biotinylated βig-h3
Experimental: To confirm that HUVECs adhesion that is mediated by βig-h3 depends on αvβ3 integrin, the present inventors tested the binding affinity of βig-h3 in the presence of an antibody that specifically blocks the function of the integrin. This binding assay was performed according to the method described by Maile, L. A., et al., J. Biol. Chem., […].
First, HUVECs were suspended in medium at a density of 1×10^5 cells/ml. 1 ml of the cell suspension was preincubated with anti-[…] antibody (LM609) or anti-αvβ5 antibody (P1F6) at 37° C. for 30 minutes. Thereafter, the preincubated cells were incubated with biotinylated βig-h3 (hereinafter, referred to as “biotin-βig-h3”) in a serum-free medium containing 0.1% BSA at 4° C. for 5 hours. The biotin-βig-h3 was added at concentrations of […], respectively. Then, the cells were washed three times with PBS buffer (pH 7.4), and dissolved at 4° C. in ice-cold buffer A (10 mM Tris-Cl, pH 7.4, 150 mM NaCl, 1% Nonidet P-40, 1% sodium deoxycholate, 0.5% SDS, 0.02% sodium azide, 1 mM EDTA, 1 mM phenylmethylsulfonyl fluoride). The cell lysates were clarified by centrifugation at 13,000 rpm for 30 minutes at 4° C. Equal amounts of protein were then separated by SDS-PAGE, 8% gel. The amount of biotin-βig-h3 was determined by Western immuno-blotting. […]

HUVECs [2] = test: Inhibition of βig-h3-mediated endothelial cell adhesion (Example 4-1); assay type: cell-based, human
Experimental: HUVECs were suspended in medium at a density of 3×10^5 cells/ml, and 0.1 ml of the cell suspension was added with the fourth fas-1 domain of βig-h3 (βig-h3 D-IV) prepared in Example 1, at concentrations of 5 μM, 10 μM and 20 μM, respectively, and preincubated at 37° C. for 30 minutes. The preincubated cells were added to each well of the 96-well plate precoated with a recombinant βig-h3 His-1-b protein. Then, the cells were tested in the same manner as in Example 2. A control was treated with 2% BSA.

HUVECs [3] = test: Adhesion of endothelial cells to fibronectin, vitronectin or collagen (Example 5-1); assay type: cell-based, human
Experimental: Flat-bottomed 96-well ELISA (enzyme-linked immunosorbent assay) plates (Costar, Corning Inc., NY) were incubated overnight at 4° C. with 10 μg/ml of fibronectin (Promega Inc., USA), vitronectin (Promega Inc., USA) and collagen, respectively, to coat the well surface. Then, a test was performed in the same manner as in Example 4-1 above.

HUVECs [4] = test: Apoptosis by annexin V staining/FACS, endothelial cells (Example 7-1); assay type: cell-based, human; conditions: 48 hours
Experimental: Annexin V is a protein binding to calcium-dependent phospholipid, and known to have a strong affinity for phosphatidylserine such that apoptosis can be assayed. For this reason, the present inventors performed a test using an annexin V staining kit (Santa Cruz Biotechnology Inc.).
Each of human umbilical vein endothelial cells (HUVECs) and melanoma cells (B16F10) was suspended in medium at a density of 5×10^5 cells/ml, added to each well of […] and incubated at 37° C. overnight. On the next day, the cells were washed one time with PBS buffer, then added with serum-free medium and incubated at 37° C. for 24 hours. 0.2% FBS-containing fresh medium was treated with the fas-1 domain (βig-h3 D-IV) prepared in Example 1, at various concentrations, then added to each well of the plate and incubated at 37° C. for 48 hours. A negative control was added with PBS, a positive control was incubated with TNF-α or Vitamin C, which are known to induce the apoptosis of endothelial cells and melanoma cells. FITC (fluorescein isothiocyanate)-conjugated annexin V antibodies were added and allowed to react at 4° C. for one hour. After completion of the reaction, unbound annexin V antibodies were removed with PBS buffer, and the apoptosis of the cells was analyzed using FACS (BD Biosciences).

caspase-3 = test: Caspase-3 activity in HUVECs (Example 7-2); assay type: cell-based, human; conditions: control (PBS) at 24 hours about 250 AU
Experimental: With respect to the induction of endothelial cell apoptosis (active cell death) by the fas-1 domain, which had been confirmed in Example 7-1 above, the present inventors measured the activity of caspase-3, which is activated when apoptosis occurs, in the cells treated with the fas-1 domain.
HUVECs were spread onto a 100-mm plate (10 ml culture solution) with M199 medium containing 10% FBS, followed by incubation in a 37° C. incubator for 12 hours. After the incubation, the medium was removed from the plate, the cells were added with fresh medium containing 0.1% FBS and further incubated for 24 hours. The cell-containing medium was treated with 5 μM or 20 μM of the fas-1 domain (βig-h3 D-IV) prepared in Example 1. A control was treated with PBS buffer. At 12 hours and 24 hours after the treatment, the cells were harvested. The caspase-3 activity of the cells was measured with an EnzCheck Caspase-3 Assay Kit(#2) (Molecular Probe Co., Eugene, Oreg., USA). Moreover, to verify that measured values are attributed to caspase-3 activity, each of the samples was treated with DEVD-CHO (Molecular Probe Co., Eugene, Oreg., USA) as a caspase-3-specific inhibitor. The control was treated with DMSO.

[5] = test system: blood vessels in Matrigel plugs; test: In vivo Matrigel plug assay (Example 9-2); parameters: species or system C57/BL6 mice
Experimental: An in vivo Matrigel plug assay was performed according to the method described by Maeshima, Y. et al., J. Biol. Chem., 275:23745-23750, 2000. 5-6 week old male C57/BL6 mice purchased from Hyochang scientific company, Korea, were used.
First, Matrigel (BD Biosciences, MA) was mixed with 20 units/ml heparin, 150 ng/ml bFGF (basic fibroblast growth factor, R&D system, International, Inc), and 5 μM or 10 μM of the fas-1 domain (pig-h3 D-IV). As a control was treated with PBS. The Matrigel mixture was injected subcutaneously to the C57/BL6 mice. After 7 days, the mice were sacrificed, and the Matrigel plugs were removed and fixed in 4% paraformaldehyde. The Matrigel plugs were embedded in paraffin, sectioned and stained with H&E. Their sections were examined by light microscope, the number of blood vessels from 4-6 HPF (high power fields; x200) was counted and averaged. Each group consisted of 3 or 4 Matrigel plugs.

B1: truncated βig-h3: recombinant human βig-h3 with EMI domain, all four fas-1 domains and RGD motif; residues 68-653 of SEQ ID NO: 1 (SEQ ID NO: 66) (protein, listed as Homo sapiens)
chain: WYQRKICGKSTVISYECCPGYEKVPGEKGCPAALPLSNLYETLGVVGSTTTQLYTDRTEKLRPEMEGPGSFTIFAPSNEAWASLPAEVLDSLVSNVNIELLNALRYHMVGRRVLTDELKHGMTLTSMYQNSNIQIHHYPNGIVTVNCARLLKADHHATNGVVHLIDKVISTITNNIQQIIEIEDTFETLRAAVAASGLNTMLEGNGQYTLLAPTNEAFEKIPSETLNRILGDPEALRDLLNNHILKSAMCAEAIVAGLSVETLEGTTLEVGCSGDMLTINGKAIISNKDILATNGVIHYIDELLIPDSAKTLFELAAESDVSTAIDLFRQAGLGNHLSGSERLTLLAPLNSVFKDGTPPIDAHTRNLLRNHIIKDQLASKYLYHGQTLETLGGKKLRVFVYRNSLCIENSCIAAHDKRGRYGTLFTMDRVLTPPMGTVMDVLKGDNRFSMLVAAIQSAGLTETLNREGVYTVFAPTNEAFRALPPRERSRLLGDAKELANILKYHIGDEILVSGGIGALVRLKSLQGDKLEVSLKNNVVSVNKEPVAEPDIMATNGVVHVITNVLQPPANRPQERGDELADSALEI
B1 was tested. Which “binding to HUVECs surface” value (HUVECs [1]) did it give?
The value was “bound to HUVECs surface in a dose-dependent manner”.

B2: fas-1 domain: recombinant protein containing the fourth fas-1 domain of human βig-h3 (SEQ ID NO: 64) (protein, listed as Homo sapiens)
chain: MGTVMDVLKGDNRFSMLVAAIQSAGLTETLNREGVYTVFAPTNEAFRALPPRERSRLLGDAKELANILKYHIGDEILVSGGIGALVRLKSLQGDKLEVSLKNNVVSVNKEPVAEPDIMATNGVVHVITNVL
For B2, which “inhibition of βig-h3-mediated adhesion of endothelial cells” value (HUVECs [2]; 5 μM) is on record?
Its value is “inhibited”.

What about the “inhibitory effect of endothelial cell adhesion compared with YH motif-containing peptide fragment of 18 amino acids” value (HUVECs [2]; 20 μM fas-1 domain vs 1,000 μM YH peptide) of the same molecule?
Its value is “higher”.

And the “inhibition of βig-h3-mediated adhesion of endothelial cells” value (HUVECs [2]; 5, 10 and 20 μM)?
Its value is “inhibited in a dose-dependent manner”.

And the “inhibition of adhesion of HUVECs to collagen” value (HUVECs [3]; plate coated with 10 μg/ml collagen)?
The value was “only partially inhibited”.

And the “inhibition of adhesion of HUVECs to fibronectin” value (HUVECs [3]; plate coated with 10 μg/ml fibronectin)?
Its value is “completely inhibited”.

And the “inhibition of adhesion of HUVECs to vitronectin” value (HUVECs [3]; plate coated with 10 μg/ml vitronectin)?
Its value is “completely inhibited”.

What about the “induction of apoptosis of HUVECs” value (HUVECs [4]) of the same molecule?
The value was “induced the apoptosis of HUVECs in a dose-dependent manner”.

What about the caspase-3 activity (caspase-3; 5 μM) of the same molecule?
Its caspase-3 activity is 300 AU.

And the caspase-3 activity (caspase-3; 20 μM)?
The caspase-3 activity was 600 AU.

And the “in vivo angiogenesis inhibitory effect compared with YH motif-containing peptide fragment of 18 amino acids” value ([5]; 5 μM fas-1 domain vs 500 μM YH peptide)?
Its value is “significantly higher”.

And the “number of blood vessels in Matrigel plug” value ([5]; 5 μM in Matrigel, subcutaneous, 7 days)?
Its value is “significantly smaller than that in the control”.

And the “angiogenesis in Matrigel plug” value ([5]; 10 μM in Matrigel, subcutaneous, 7 days)?
Its value is “perfectly inhibited”.
